Assay results reported in paper PMC4014539, “PEG-Protein Interaction Induced Contraction of NalD Chains” (PLoS ONE, 2014).

Biological target: the molecule itself
Experiment: AUC; Beckman Optima XL-I, UV detection at 280 nm, 45,000 rpm, 20°C; NalD in aqueous solution before addition of PEG3350; apparent molar masses from peak positions

B1: NalD (natural protein)
chain: MRRTKEDSEKTRTAILLAAEELFLEKGVSHTSLEQIARAAGVTRGAVYWHFQNKAHLFNEMLNQVRLPPEQLTERLSGCDGSDPLRSLYDLCLEAVQSLLTQEKKRRILTILMQRCEFTEELREAQERNNAFVQMFIELCEQLFARDECRVRLHPGMTPRIASRALHALILGLFNDWLRDPRLFDPDTDAEHLLEPMFRGLVRDWGQASSAP
notes: NalD, TetR family repressor of the MexAB-OprM multi-drug efflux operon, Pseudomonas aeruginosa PAO1; a protein of 212 amino acids; nalD gene amplified by PCR and cloned into PET-30a between NdeI and XhoI; also called NalD protein; regulator of MexAB-OprM multi-drug efflux systems; source: E. coli BL21 star (DE3), purified (SFF, Heparin, Ni-NTA, monoQ columns)
B1: binds.
